# PMC12147176, “Unstructured protein domains stabilize RNA binding and mediate RNA folding by AUF1”
# Columns and labels:
# [1] = molecular target: T1, His6-p37AUF1(78-239) (human, UniProt Q14103-4 78-239); experiment: fluorescence anisotropy; Anisotropy: 10 mM Tris-HCl pH 8.0, 100 mM KCl (50 mM for Fl-ARE2), 0.5 mM EDTA, 0.1 ug/ul acetylated BSA, 1 ug/ul heparin, 2 mM DTT, 25 C, RNA 0.2-0.4 nM; EMSA: same with 100 mM KCl, 10% glycerol, 1 nM RNA, on ice, UV crosslinked; conditions: protein: recombinant; for Kd: label: 3' fluorescein
# T1 sequence (Q14103 other isoform, or with tags, fused parts or gaps): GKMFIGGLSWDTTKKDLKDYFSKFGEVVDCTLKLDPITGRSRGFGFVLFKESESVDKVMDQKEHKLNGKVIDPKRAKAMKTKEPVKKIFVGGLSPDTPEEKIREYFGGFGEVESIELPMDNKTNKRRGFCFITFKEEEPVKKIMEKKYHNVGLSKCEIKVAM
# [2] = molecular target: His6-p37AUF1(30-287) (human, UniProt Q14103-4 30-287); experiment: as above; conditions: protein: recombinant; chain copies: 2; label: 3' fluorescein
# Chain of His6-p37AUF1(30-287) (Q14103 other isoform, or with tags, fused parts or gaps): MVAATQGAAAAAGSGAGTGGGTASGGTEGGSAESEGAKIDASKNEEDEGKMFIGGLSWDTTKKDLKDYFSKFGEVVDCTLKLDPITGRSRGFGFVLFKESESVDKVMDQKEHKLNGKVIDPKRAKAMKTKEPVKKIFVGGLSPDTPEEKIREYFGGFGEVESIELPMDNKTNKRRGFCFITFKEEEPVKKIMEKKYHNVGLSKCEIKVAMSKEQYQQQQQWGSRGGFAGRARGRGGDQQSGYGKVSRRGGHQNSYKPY
# [3] = molecular target: His6-p37AUF1(69-239) (human, UniProt Q14103-4 69-239); experiment: as above; conditions: protein: recombinant; label: 3' fluorescein
# Chain of His6-p37AUF1(69-239) (Q14103 other isoform, or with tags, fused parts or gaps): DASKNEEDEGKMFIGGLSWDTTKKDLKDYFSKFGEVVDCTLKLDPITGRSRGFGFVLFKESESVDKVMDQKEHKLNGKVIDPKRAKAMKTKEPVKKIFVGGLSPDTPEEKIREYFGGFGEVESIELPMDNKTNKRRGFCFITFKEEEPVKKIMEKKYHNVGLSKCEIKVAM
# [4] = molecular target: T2, His6-p37AUF1(1-239) (human, UniProt Q14103-4 1-239); experiment: as above; conditions: protein: recombinant; chain copies: 2; label: 3' fluorescein
# T2 sequence (Q14103 other isoform, or with tags, fused parts or gaps): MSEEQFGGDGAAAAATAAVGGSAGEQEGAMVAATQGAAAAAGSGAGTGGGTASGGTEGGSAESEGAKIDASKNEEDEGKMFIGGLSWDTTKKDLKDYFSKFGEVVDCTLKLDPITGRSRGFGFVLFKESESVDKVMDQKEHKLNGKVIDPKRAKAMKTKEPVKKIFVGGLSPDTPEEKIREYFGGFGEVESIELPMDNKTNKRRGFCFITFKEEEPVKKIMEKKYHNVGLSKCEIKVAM
# [5] = molecular target: His6-p37AUF1 W250F (human, UniProt Q14103-4 1-287, W250F); experiment: as above; conditions: protein: recombinant; tags: N-term His6; chain copies: 2; label: 3' fluorescein
# Chain of His6-p37AUF1 W250F (Q14103 other isoform, or with tags, fused parts or gaps W250F | W250F W250F): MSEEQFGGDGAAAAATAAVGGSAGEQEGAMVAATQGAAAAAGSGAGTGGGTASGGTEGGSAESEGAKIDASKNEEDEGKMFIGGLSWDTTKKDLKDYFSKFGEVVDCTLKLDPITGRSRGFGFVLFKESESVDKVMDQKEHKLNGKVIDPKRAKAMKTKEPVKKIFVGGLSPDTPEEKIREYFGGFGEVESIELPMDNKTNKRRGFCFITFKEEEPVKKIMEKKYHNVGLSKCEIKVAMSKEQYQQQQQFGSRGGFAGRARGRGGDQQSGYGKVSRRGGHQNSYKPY
# [6] = molecular target: T3, His6-p37AUF1 wt (human, UniProt Q14103-4 1-287); experiment: as above; conditions: protein: recombinant, chain copies: 2; for Kd: label: 3' fluorescein
# T3 sequence (Q14103 other isoform, or with tags, fused parts or gaps): as the sequence (Q14103 other isoform, or with tags, fused parts or gaps W250F | W250F W250F) above, with F250W counted along it
# [7] = molecular target: His6-p37AUF1(Δ69-77) (human, UniProt Q14103-4 1-287, del69-77); experiment: as above; conditions: protein: recombinant; chain copies: 2; label: 3' fluorescein
# Chain of His6-p37AUF1(Δ69-77) (Q14103 other isoform, or with tags, fused parts or gaps del69-77 | mutant): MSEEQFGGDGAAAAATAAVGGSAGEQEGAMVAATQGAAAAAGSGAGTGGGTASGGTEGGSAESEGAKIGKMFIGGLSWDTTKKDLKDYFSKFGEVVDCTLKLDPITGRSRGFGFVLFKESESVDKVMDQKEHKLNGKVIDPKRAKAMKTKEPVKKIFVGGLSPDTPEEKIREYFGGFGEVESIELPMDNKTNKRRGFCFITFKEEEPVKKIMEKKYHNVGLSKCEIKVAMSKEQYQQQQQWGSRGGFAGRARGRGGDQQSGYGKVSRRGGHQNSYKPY
# [8] = molecular target: p37AUF1 (EK-cleaved) (human, UniProt Q14103-4 1-287); experiment: as above; conditions: protein: recombinant; tags: His6 removed by enterokinase; chain copies: 2; label: 3' fluorescein
# Chain of p37AUF1 (EK-cleaved) (Q14103 other isoform, or with tags, fused parts or gaps): as the sequence (Q14103 other isoform, or with tags, fused parts or gaps W250F | W250F W250F) above, with F250W counted along it
# [9] = molecular target: T4, His6-p37AUF1 W87F (human, UniProt Q14103-4 1-287, W87F); experiment: Trp fluorescence and iodide quenching; 2 uM each; KSV 0.60 vs 6.59 M-1 without RNA; saturates near 1:1; Anisotropy: 10 mM Tris-HCl pH 8.0, 100 mM KCl (50 mM for Fl-ARE2), 0.5 mM EDTA, 0.1 ug/ul acetylated BSA, 1 ug/ul heparin, 2 mM DTT, 25 C, RNA 0.2-0.4 nM; EMSA: same with 100 mM KCl, 10% glycerol, 1 nM RNA, on ice, UV crosslinked; conditions: protein: recombinant; tags: N-term His6; chain copies: 2
# T4 sequence (Q14103 other isoform, or with tags, fused parts or gaps W87F | W87F W87F): as the sequence (Q14103 other isoform, or with tags, fused parts or gaps W250F | W250F W250F) above, with W87F, F250W counted along it
# [10] = molecular target: T4, His6-p37AUF1 W87F; experiment: Trp fluorescence and iodide quenching; 2 uM each; KSV 3.88 M-1; Anisotropy: 10 mM Tris-HCl pH 8.0, 100 mM KCl (50 mM for Fl-ARE2), 0.5 mM EDTA, 0.1 ug/ul acetylated BSA, 1 ug/ul heparin, 2 mM DTT, 25 C, RNA 0.2-0.4 nM; EMSA: same with 100 mM KCl, 10% glycerol, 1 nM RNA, on ice, UV crosslinked; conditions: protein: recombinant; tags: N-term His6; chain copies: 2
# [11] = molecular target: T1, His6-p37AUF1(78-239); experiment: EMSA (UV-crosslinked); Anisotropy: 10 mM Tris-HCl pH 8.0, 100 mM KCl (50 mM for Fl-ARE2), 0.5 mM EDTA, 0.1 ug/ul acetylated BSA, 1 ug/ul heparin, 2 mM DTT, 25 C, RNA 0.2-0.4 nM; EMSA: same with 100 mM KCl, 10% glycerol, 1 nM RNA, on ice, UV crosslinked; conditions: protein: recombinant; label: biotin
# [12] = molecular target: T3, His6-p37AUF1 wt; experiment: as above; conditions: protein: recombinant; chain copies: 2; label: biotin
# [13] = molecular target: T1, His6-p37AUF1(78-239); experiment: fluorescence anisotropy; first site (Kd1), 50 mM KCl; Anisotropy: 10 mM Tris-HCl pH 8.0, 100 mM KCl (50 mM for Fl-ARE2), 0.5 mM EDTA, 0.1 ug/ul acetylated BSA, 1 ug/ul heparin, 2 mM DTT, 25 C, RNA 0.2-0.4 nM; EMSA: same with 100 mM KCl, 10% glycerol, 1 nM RNA, on ice, UV crosslinked; conditions: protein: recombinant; label: 5' fluorescein
# [14] = molecular target: T2, His6-p37AUF1(1-239); experiment: as above; conditions: protein: recombinant; chain copies: 2; label: 5' fluorescein
# [15] = molecular target: T3, His6-p37AUF1 wt; experiment: as above; conditions: protein: recombinant; chain copies: 2; label: 5' fluorescein
# [16] = molecular target: His6-p37AUF1(69-287) (human, UniProt Q14103-4 69-287); experiment: fluorescence anisotropy; Anisotropy: 10 mM Tris-HCl pH 8.0, 100 mM KCl (50 mM for Fl-ARE2), 0.5 mM EDTA, 0.1 ug/ul acetylated BSA, 1 ug/ul heparin, 2 mM DTT, 25 C, RNA 0.2-0.4 nM; EMSA: same with 100 mM KCl, 10% glycerol, 1 nM RNA, on ice, UV crosslinked; conditions: protein: recombinant; label: 3' fluorescein
# Chain of His6-p37AUF1(69-287) (Q14103 other isoform, or with tags, fused parts or gaps): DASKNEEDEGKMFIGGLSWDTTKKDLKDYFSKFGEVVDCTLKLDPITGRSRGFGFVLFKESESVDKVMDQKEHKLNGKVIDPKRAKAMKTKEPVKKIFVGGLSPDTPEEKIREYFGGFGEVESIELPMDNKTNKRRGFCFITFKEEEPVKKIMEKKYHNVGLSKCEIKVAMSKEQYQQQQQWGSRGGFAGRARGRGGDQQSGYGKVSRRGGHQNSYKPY
# [17] = molecular target: His6-p37AUF1(78-287) (human, UniProt Q14103-4 78-287); experiment: as above; conditions: protein: recombinant; chain copies: 2; label: 3' fluorescein
# Chain of His6-p37AUF1(78-287) (Q14103 other isoform, or with tags, fused parts or gaps): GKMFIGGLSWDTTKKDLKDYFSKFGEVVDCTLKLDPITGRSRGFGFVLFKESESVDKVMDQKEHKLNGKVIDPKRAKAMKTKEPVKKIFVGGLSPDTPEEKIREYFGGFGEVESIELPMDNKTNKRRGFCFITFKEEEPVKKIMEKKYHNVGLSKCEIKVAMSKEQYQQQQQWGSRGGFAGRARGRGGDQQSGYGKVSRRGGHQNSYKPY
binder,measurement,setting,value
CCCCUGGCUCACAAAUACCUUAUUUAUUUAUUUAG (ssRNA) [ARE1-Fl],Kd,[1],505 ± 34 nM
same,Kd,[2],27 ± 1.4 nM
same,Kd,[3],527 ± 54 nM
same,Kd,[4],101 ± 8 nM
same,Kd,[5],22 ± 2 nM
same,Kd,[6],19 ± 3 nM
same,Kd,[7],89 ± 11 nM
same,Kd,[8],15 ± 2 nM
CCCCUGGCUCACAAAUACCUUAUUUAUUUAUUUAG (ssRNA) [ARE1 (unlabeled)],binding result,[9],binds
UUAUUUAUUUAUUUAG (ssRNA) [ARE15-G (unlabeled)],binding result,[10],binds
UGGCCAAUGCCCUGGCUCACAAAUACCACUG (ssRNA) [Fl-Rβ],binding result,[1]; label: 5' fluorescein,no binding
same,binding result,[6]; label: 5' fluorescein,no binding
UGGCCAAUGCCCUGGCUCACAAAUACCACUG (ssRNA) [B-Rβ],binding result,[11],no binding
same,binding result,[12],no binding
GUGAUUAUUUAUUAUUUAUUUAUUAUUUAUUUAUUUAG (ssRNA) [Fl-ARE2],Kd,[13],853 ± 48 nM
same,Kd,[14],156 ± 7 nM
same,Kd,[15],16 ± 3 nM
UUAUUUAUUUAUUUAG (ssRNA) [ARE15-G-Fl],Kd,[1],796 ± 103 nM
same,Kd,[3],933 ± 90 nM
same,Kd,[4],176 ± 9 nM
same,Kd,[6],110 ± 5 nM
same,Kd,[16],467 ± 33 nM
same,Kd,[17],1090 ± 69 nM
